Laboratory results from the domain aggregation screens of Martell et al. (2025).

Test: soluble fraction after stress (log2 fold change); higher = more stays soluble; pooled small domains, quantitative proteomics
Details: stress: 75 degC
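Note: 20 min heating vs room temperature control held 20 min.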

Sequence | soluble fraction (log2)
HMESKPLTPSEIKKLRMDANMTQAGLAEVLGMTVKAVEAWESGRNIPSGAADKILRVMQKHPSVIGMMQS | 0.0281
HMESLNDRIKLVFKDSGLTQMDISKRLNIAQSSVSGIISGKANPSKRTLADIADRFDVNLEWLRDGTGPMK | 0.474
HMESLSHRQKSIVDWVQKNGYASIERMAEQFEVSAQTIRRDVIELSERRILQRHHGGASLPAG | -0.211
HMESNDSNIEDDFYEGLKSMRKGDLKMSVVFFTRVIEKKPTFAEAWNRRATVYYMLGKFDKSMFDINETLK | -0.354
HMESPELIHILKEAEWQIWQQIQGLPEKQRIAMTLFAMDDLSYQEIADVMKVSVSAIESLLFRARTQLKKY | -0.546
HMESPLEQLTNRELQTLQMLGKGLSTKQIAAQLNLSVKTVETYRENLKRKLNLDSGSELIRYAIHRSNE | 0.532
HMESPLNPTDVRRAAMDLLARREHGVEELRLKLKRRFGREEDFETIATEQLQRLVDEDLLSDTRF | -0.355
HMESRETGLPVVIISDGRILQDNLKRRGLDLSWLDKQLAEHGYPDFRDVFLLTVDEAGGVYFVPRE | 0.438
HMESSNLESQLKKGIVPNLNGLSAKDALFLLENSGFNVKLYGMGSVKKQSLEAGKKYNKGDKITLIL | 0.151
HMESSYKGFILDIETRQFSPTLIQRRGIAINPSGIVETTTEFSFATQEKVLIEDLKLIIDELDLRADY | -3.69
HMESTLNYSQFLSLVNEDRVAEVVIQGKELYVTDVNRSRFKVYAPPDPELIGLLRQKRVIISAKP | -0.56
HMESVDRIYERVRRYADDVGTAKIPMKELDDDGPLGTAVSRIRERRKRGELTEEWEARFETLPGWTWAA | 0.045
HMESWEDSNIANEFKSTIKIAEKRLAEGGDHPELLEKLEALKQAIINENQTEASKLDDQVNDILFDMDD | 0.602
HMETEAGIKAYLSSSMIKGIGPVTAQRIVERFGKRTLYVLDQMPEKLLDISGISEAKLEEILNGYRKS | -0.536
HMETFGEKDLDELIGRNVELITHDGKVREGLVDSVDRYNVSLVRYLDAGEVAMMVRRREVKAVRLK | -0.703
HMETFGLSQRELQILSQLHKGQPLKEFAASLFITESTLKTHLSAIYRKMSVKNRVQAIEKAKQSGL | -1.4
HMETGEDSLRRYFNSLPGSASKREILEDNPTVSQRTTERILQKLQAEGFIEKVGAARATRYRKVKQ | 0.259
HMETGELQQILEDVFSKNIGIVQDKREAAFSILMGMIMAKSRGRADGALVSTLLKKKLTEFLATSDQVR | -0.0719
HMETGNEDYRVGKELAYDGNYKAATIYLMKSIKDDPNNPDAFNMLGFSHRKLGNNDEAYIYYNKALEL | -0.275
HMETKKEIIEAINELEEKYRNAIYLTSIEKLSYEETSKILGQSLSNTKNLIHRGKQQLRKILIKK | -0.772
HMETLEDHRKKTRQQLFDALSHLLQTSTFESLTMAKIAEEAGVGRTAVYNHFQDKEALLLAFITYETGQ | -1.74
HMETLETYTSRLRQLEDITNNFKGVDKSFAIQAGREIRVMVVPEQVSDADMILMARDISKAIEAELEYPGQ | 0.0937
HMETLGADLRALRKSRGLTLLDMAESLGRSVGWLSQVERDLSDPSISDLREIAELLGVPISMLFRH | -2.83
HMETLKEMDSKGAINASEVNVREGAGTSSSKMYSLSKGASVDVTGIKGDWYRVHTSKGTGYVLAKYVTLVS | -0.29
HMETLYGQIVNDIMEKIESNAWPVGYVIPTESDFQKQYGVSRATVRNAILKLAHLGYLVRKKGSGTYVTRP | -1.25
HMETPEIPGLTPRQVEIMLLVGKGYSNKEIARFLTISPETVKTHLKEVFLRFGLRNRVEAIDFTRQNGL | -0.656
HMETPLSAADFKIVFGEEYEIGTDANGLPKMGSRINRQLQNRFLTWASVNKRKATMSAYQDWVASDPAAQ | -0.323
HMETQVKVPNVVGMTQSKAIAKLKESKLDYEVQEQKHDGDKGKVVDQSEAEGTYVDRGTKVIIYVSTGE | -0.437

Sequence | soluble fraction (log2)
HMETSIQFIRLEIGHNHPWVNQTLKEIPTIPGTLIAAVLRGDEDQAIIPKGDTLLKEGDSVIIGAKEYQD | -1.42
HMETSLVIQIDGAVNSPGIYQVTPGTRIFEALELAGGVREDAQTEALNLALPVYDGQRISIPSSFA | -0.153
HMETTVSYSGVVTASVLRIRKGPSVSSSVAGTLKKGTGVSIIFEDNGWGKLADGSGWVSLTYIKKNSTP | -2.33
HMETWDQAYETIKQNILNLTYPPGMPLTEAKLAEELGMSRSPVRTALRMLQTDGLIVTDYYKSMTVKEI | -1.95
HMETWKLYKRAYKKYYARYMKGNMSEADFKAWATQAAADRDAAIEQITPEIDAALKAQIIEQLREKLNR | -1.11
HMEVAAAENYRSKLSSFAKDTISVWQTELLLGTISDDDKASLTEWMAYIKALQVVDTSDPESITWPTEPT | -1.14
HMEVAASEQRDNLWALARRVLSGEQYDVLYLRYVEDFSVAQIADVVGKTQTHVKVLLFRGRNNLGSRLRS | 0.0441
HMEVENAQLLARLTPQEHRVFERVVAGLSNREIGSEMDISIKTVEVHRARVMRKLEANSVAELVRFHIHN | -2.37
HMEVGDTYLGKVTRVSSFGAFIEVLPGKEGLMRQNDAGEGGMPEVGDEVMVRVMEVDHLGRINLSGKLDD | -0.102
HMEVGKRIAEIRKENRMSQEQFGQLFHVTRQTVSNWENAKSYPDLQTLVKISELFEITMDELLK | -1.45
HMEVKVSGHLEAIGGVYHMKLSWIDDAGKRRRKSKSTGLAERGNKKRANDMLIDFMREQEAEIAASGD | -2.05
HMEVLSKRGSTGTEVINIQKKLKNWGYYTGSVDGIYGKLTEEAVRYFQRTNGLTVDGIAGKNTLAAMGIA | -0.619
HMEVNLEPLIALLRKHRDLDLSGYSKSTLGRRITYFMGLNKISSIDELGRRLAEDDLLFQEFLDKLT | -0.264
HMEVSLEDKMDYLTNYATTHKNFSFRNLLESSSGKIEVIVTFLAILELMKMGRINISQEHIFDDIIIESRI | -2.68
HMEVSTRQVRAALRDIIEAEDKKRPLSDEAITARLREQGLPVARRTVAKYREQMGILAARLRK | -0.662
HMEVVRVEPGATVRDLGEALGVPPTRIIQILMGLGEMKTVTQTLSTEEIELVAEELGRRVEV | -0.108
HMEWVVVPDVRRQLLPEAQRRVNKARLRLEVAGGWPAEPLLAMVVDQKPGPETRVPLNSIVVVVVRNLP | -0.981
HMEYELYALKEEVLKRLTREDRELLILLFEERRTIHAVAQRLGLSDSAVYKRRTQLVNKVKVIASMLM | -2.22
HMEYKNYYDSPVGRLELLSDGVSLTAVLFENQQGDGTREENTSLAIFKEATQWLDAYFKGDNPEITIPL | 0.0228
HMEYKTGIINTNKVRVRNAADADATVIFAINKDIKVKILAEENGFYKIGVSVKNRGNGEDLIGFVKKELIT | -1.81
HMEYQTVEKSEAEQIIQELEKAERLALKVYSKNDIITGISVSDGKSYYFSAELVPMLKNIIENPEIKIL | -0.795
HMEYRVRDKMTDILELLTEHRGRIALRDAFPTGTREELLAAFLALLELTKMQTVIVYQDRLYDDIQIVMK | -0.354
HMEYSTLEIYSQTKKDLIEKSPHLNKVVYDKDDGYIYLLSFEKEDDLTSFKSNIENDSDIKRIEANV | 0.121
HMEYTVNRLAQISGVSKRTLRYYDEIGLLRPERVNPNGYRIYGQMQVDLLQQILFYRELGLPLEEIREII | -0.502
HMFAATGVVNAPSGLVLRETASKGGNPLATVPDKAQVEIVEEDGEWYKVKVNEQTGYLFAEFVNKTE | -0.0895
HMFAQDQLFKKDNSKVDVKILEINTTEIKYKLFTYQDGPTITVAKKDVALIIYQNGVHEVIT | -2.53
HMFAVPAPEVDDILSEKKVDVLLLGPQVRYLLEQFTEKLKDKNIPIGVIPMVDYGMMNGSKVLALAEELIG | 0.131
